Measured values taken from patent US20090155236A1, “Peptide sequence for modulation of delta protein kinase c” (NATIONAL INSTITUES OF HEALTH (NIH), U.S. DEPT OF HEALTH AND …, priority 2004, published 2009).

T1: epsilon PKC (Homo sapiens, UniProt Q02156)
T1 construct: purchased Panvera LLC, now Invitrogen Corporation
T1 sequence (Q02156 with tags, fused parts or gaps DEL296-297/G298R): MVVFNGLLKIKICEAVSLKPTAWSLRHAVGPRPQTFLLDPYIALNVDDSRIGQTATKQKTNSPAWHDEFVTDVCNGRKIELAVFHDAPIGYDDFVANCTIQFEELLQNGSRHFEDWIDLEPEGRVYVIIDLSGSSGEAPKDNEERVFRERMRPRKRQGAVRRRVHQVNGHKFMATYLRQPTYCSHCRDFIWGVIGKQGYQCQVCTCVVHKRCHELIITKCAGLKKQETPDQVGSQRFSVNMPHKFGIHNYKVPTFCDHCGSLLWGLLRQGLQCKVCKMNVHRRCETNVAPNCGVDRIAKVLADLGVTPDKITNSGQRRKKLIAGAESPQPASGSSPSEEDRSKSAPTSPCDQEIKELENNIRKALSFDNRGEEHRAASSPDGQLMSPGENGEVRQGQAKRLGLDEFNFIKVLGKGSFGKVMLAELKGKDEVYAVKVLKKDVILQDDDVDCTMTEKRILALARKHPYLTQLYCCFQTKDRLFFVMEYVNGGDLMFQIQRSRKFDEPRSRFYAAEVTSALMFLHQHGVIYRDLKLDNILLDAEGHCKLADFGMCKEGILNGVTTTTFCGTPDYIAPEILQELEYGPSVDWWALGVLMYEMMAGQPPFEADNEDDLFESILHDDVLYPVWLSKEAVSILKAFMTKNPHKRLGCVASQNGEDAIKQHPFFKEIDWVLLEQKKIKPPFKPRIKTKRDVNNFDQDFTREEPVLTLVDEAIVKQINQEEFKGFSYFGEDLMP

T2: epsilon PKC (Rattus norvegicus, UniProt P09216)
T2 sequence (P09216 1-737): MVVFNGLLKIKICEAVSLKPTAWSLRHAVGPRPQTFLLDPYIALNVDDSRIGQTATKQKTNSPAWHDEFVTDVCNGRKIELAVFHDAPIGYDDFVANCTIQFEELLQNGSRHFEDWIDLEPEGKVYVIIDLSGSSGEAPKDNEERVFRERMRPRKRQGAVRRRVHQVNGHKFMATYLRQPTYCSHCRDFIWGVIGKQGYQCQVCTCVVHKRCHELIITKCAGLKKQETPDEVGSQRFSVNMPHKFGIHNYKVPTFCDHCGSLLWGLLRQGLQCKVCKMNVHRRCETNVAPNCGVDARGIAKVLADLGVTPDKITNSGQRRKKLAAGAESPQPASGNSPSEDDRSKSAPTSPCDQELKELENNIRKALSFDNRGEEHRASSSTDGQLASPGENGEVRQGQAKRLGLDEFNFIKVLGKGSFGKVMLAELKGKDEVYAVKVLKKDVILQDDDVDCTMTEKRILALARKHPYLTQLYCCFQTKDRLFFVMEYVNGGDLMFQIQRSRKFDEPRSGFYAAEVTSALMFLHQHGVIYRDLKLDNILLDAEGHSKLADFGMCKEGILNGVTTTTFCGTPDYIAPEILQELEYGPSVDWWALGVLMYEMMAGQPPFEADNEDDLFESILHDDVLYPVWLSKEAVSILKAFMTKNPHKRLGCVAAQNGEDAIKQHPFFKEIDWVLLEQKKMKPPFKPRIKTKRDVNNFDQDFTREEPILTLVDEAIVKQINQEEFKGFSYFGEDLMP


Tests used:
[1] = biological target: T3, delta PKC (Rattus norvegicus, UniProt P09215); test: ELISA binding of annexin I and annexin V to delta PKC; conditions: FIG. 3
Text: Annexin V binds with higher affinity to delta PKC than does annexin I (SEQ ID NO:9), as was shown in another study presented in FIG. 3. The percent binding of annexin 1 and annexin V to delta PKC (SEQ ID NO:3) in the presence and absence of calcium was investigated using ELISA (Example 2). […] In the presence of calcium the binding increased to 100%. In contrast, annexin I binding to delta PKC was unaffected by the presence of calcium and remained at about 70% both in the absence and presence of calcium.
(§1) Annexin V (SEQ ID NO:2) was diluted in 100 mM carbonate buffer (pH=9.6) and 100 μl of the diluted solution is placed in each well of a microtiter plate to give 0.1 μg Annexin V per well. The plate was incubated overnight at 4° C. After the overnight incubation, the plate was blocked for 1 hour at room temperature with 200 μL/well of 1% bovine serum albumin (BSA).
The interaction partners, delta PKC (SEQ ID NO:3), delta V1 PKC (SEQ ID NO:4), and delta V5 PKC (SEQ ID NO:5), were diluted in 100 mM HEPES. For the full length delta PKC, approximately 1.5 μg/well (1:20 dilution of cell lysate) was added. For the delta V1 and delta V5 PKC regions, between about 8000-80 ng/well was added, with an intermediate concentration being sufficient. Signal to noise increased dramatically at higher concentrations; therefore, 8 μg/well was preferred (this corresponds to 1:40 dilution of cell lysate). 100 μL/well, 1 hour w/shaking. Binding was accelerated at 37° C., however room temperature was also sufficient for binding.
After 1 hour shaking, the plate was washed three times with 100 mM HEPES (200 μL/well×3), with 5 minutes for each wash, with shaking.
Next, a primary antibody in milk (usually 1:1000 dilution) was added, followed by 1 hour at room temperature with shaking. The plate was then washed three times, (200 μL/well×3) with PBS Tween (0.1% Tween), with 5 minutes per wash with shaking.
Then, the secondary antibody diluted in PBS Tween (usually 1:1000) was added, followed by 1 hour at room temperature with shaking. The plate was then washed three times (200 μL/well×3) with PBS Tween, with 5 minutes per wash with shaking.
(§2) A developing reagent was added (100 μL/well): 1 PNPP tablet per 5 mL diluted buffer. 2N NaOH was added and the plate was allowed to develop and then read at 405 nm (single wavelength).
Target sequence in this assay (P09215 with tags, fused parts or gaps with the stated changes limits assumed): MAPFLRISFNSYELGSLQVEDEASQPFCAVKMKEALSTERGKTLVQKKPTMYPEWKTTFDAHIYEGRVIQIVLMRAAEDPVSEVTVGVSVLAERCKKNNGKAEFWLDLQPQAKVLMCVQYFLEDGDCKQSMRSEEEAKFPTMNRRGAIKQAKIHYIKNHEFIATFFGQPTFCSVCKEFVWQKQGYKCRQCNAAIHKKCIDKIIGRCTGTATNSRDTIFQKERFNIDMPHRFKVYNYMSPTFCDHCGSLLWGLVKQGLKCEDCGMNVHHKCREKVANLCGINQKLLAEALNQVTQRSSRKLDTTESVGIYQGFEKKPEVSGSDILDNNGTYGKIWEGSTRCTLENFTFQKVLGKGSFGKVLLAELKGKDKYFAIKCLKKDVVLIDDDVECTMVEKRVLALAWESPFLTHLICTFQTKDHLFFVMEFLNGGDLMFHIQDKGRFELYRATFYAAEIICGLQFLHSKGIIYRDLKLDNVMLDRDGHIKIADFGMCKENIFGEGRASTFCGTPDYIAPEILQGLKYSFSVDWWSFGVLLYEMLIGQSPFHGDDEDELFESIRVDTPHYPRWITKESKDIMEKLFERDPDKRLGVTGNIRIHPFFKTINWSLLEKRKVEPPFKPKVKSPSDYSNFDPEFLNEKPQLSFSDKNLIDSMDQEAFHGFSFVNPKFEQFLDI

[2] = biological target: T4, delta V1 PKC (Rattus norvegicus, UniProt P09215); test: ELISA binding of annexin V protein to delta V1 PKC; conditions: FIG. 2
T4 construct: MBP (printed as 'myelin basic protein'); made in house
Text: In another study, binding of annexin V protein to the V1 regions of epsilon PKC (SEQ ID NO:7) and of delta PKC (SEQ ID NO:4) was examined using ELISA, as described in Example 2. […] Binding of annexin V protein (SEQ ID NO:2) to delta V1 PKC in the absence of calcium was about 55%. In the presence of calcium binding was increased to 100%. […] Thus, annexin V protein binds to full-length PCK and to the V1 and V5 domains of delta PKC in vitro in an isozyme specific manner.
as §1
The interaction partners, delta PKC (SEQ ID NO:3), delta V1 PKC (SEQ ID NO:4), and delta V5 PKC (SEQ ID NO:5), were diluted in 100 mM HEPES. For the full length delta PKC, approximately 1.5 μg/well (1:20 dilution of cell lysate) was added. For the delta V1 and delta V5 PKC regions, between about 8000-80 ng/well was added, with an intermediate concentration being sufficient. […]
as §2

[3] = biological target: T5, delta PKC (Homo sapiens, UniProt Q05655); test: In vitro kinase assay, histone phosphorylation by delta PKC; assay type: biochemical; conditions: in the presence of PS/DAG, FIG. 4A
T5 construct: purchased Panvera LLC, now Invitrogen Corporation
Description: (§3) In another study, the ability of annexin V to increase the catalytic activity of delta PKC in vitro was evaluated. Full-length, recombinant delta PKC (SEQ ID NO:3) and epsilon PKC (SEQ ID NO:6) were separately incubated in the presence of kinase buffer, ATP, or histone, as described in Example 3. Activators of PKC, phosphatidylserine (PS) and diacylglycerol (DAG), were added along with annexin V, JTV-519, a 1,4 benzothiazepine derivative that activates delta PKC (Inagaki, K. et al., Circulation, 101:797 (2000)), or a mixture of annexin V and JTV-519.
(§4) 200 ng of pure delta PKC or epsilon PKC (Panvera LLC, now Invitrogen Corporation, Carlsbad, Calif.) were incubated in 100 μL kinase buffer (20 mM Tris pH 7.4, 50 mM MgCl2, 0.3 μCi/reaction [γ-^32P]ATP (Amersham Biosciences), 9 μM/reaction ATP (Sigma), 30 μg/reaction myelin basic protein or histone A1 (Sigma); 100 μM lipid vesicle mixture (90% phosphatidylserine (PS): 10% diacylglycerol (DAG)), 1 mM CaCl2, 1 μM JTV519, and/or 20 ng of Annexin V/reaction were added, where applicable. The kinase reaction was stopped by the addition of SDS sample buffer, and extent of histone phosphorylation assessed after separation on 15% SDS-PAGE and transfer onto nitrocellulose membrane by autoradiography.

[4] = biological target: T1, epsilon PKC; test: In vitro kinase assay, histone phosphorylation by epsilon PKC; assay type: biochemical; conditions: in the presence of PS/DAG, FIG. 4B
Description: as §3, §4

[5] = biological target: T3, delta PKC; test: Overlay assay, immobilized annexin V with delta PKC, delta V1 and delta V5 domains; assay type: binding; parameters: made in house; host or cells: crude bacterial cell lysate (not clear whether this also covers the full-length protein)
Text: (§5) Initial studies were designed to evaluate binding of annexin V to delta PKC, to certain regions of delta PKC (V1 and V5 regions), and to epsilon PKC. In a study detailed in Example 1, an overlay assay using immobilized annexin V (SEQ ID NO:2) and recombinant full-length delta PKC (SEQ ID NO:3), purified full-length epsilon PKC (SEQ ID NO:6), the recombinant V1 region of delta PKC (“V1 delta PKC”, SEQ ID NO:4), and the recombinant V5 region of delta PKC (“V5 delta PKC”, SEQ ID NO:5) was done. The V1 delta PKC peptide conjugated to […] to form a fusion protein, and the V5 delta PKC peptide was conjugated to glutathione-S-transferase to form a fusion protein.
10 μg of annexin V (SEQ ID NO:2) was separated on 12% SDS-PAGE gel and transferred to nitrocellulose, and then cut into strips. The strips were incubated with blocking buffer (50 mM Tris pH 7.5, 200 mM NaCl, 3% bovine serum albumin, 0.1% PEG20). The strips were then incubated in overlay buffer (50 mM Tris pH 7.5, 200 mM NaCl, 1% PEG20, 12 mM β-mercaptoethanol) in the presence where appropriate of 30 μg crude bacterial cell lysate containing fusion proteins of […] V1 PKC (MBP-δV1), glutathione-S-transferase-delta V5 PKC (GST-δV5), and full length sequences of delta (δPKC, SEQ ID NO:3) or rat purified epsilon (εPKC, SEQ ID NO:6) at 37° C. for 30 min. The strips where then washed with wash buffer (50 mM Tris pH 7.5, 200 mM NaCl, 0.1% PEG20, 12 mM O-mercaptoethanol), and then incubated with fixative (0.2% formaldehyde in PBS) and neutralizing solution (0.2M glycine in PBS) at room temperature 20 min each. After washing with buffer, the strips were probed with antibodies according to the overlay protein, and resulting bands visualized using ECL Western blotting.

[6] = biological target: T2, epsilon PKC; test: Overlay assay, immobilized annexin V with epsilon PKC; assay type: binding; conditions: FIG. 1
Text: as §5
10 μg of annexin V (SEQ ID NO:2) was separated on 12% SDS-PAGE gel and transferred to nitrocellulose, and then cut into strips. The strips were incubated with blocking buffer (50 mM Tris pH 7.5, 200 mM NaCl, 3% bovine serum albumin, 0.1% PEG20). The strips were then incubated in overlay buffer (50 mM Tris pH 7.5, 200 mM NaCl, 1% PEG20, 12 mM β-mercaptoethanol) in the presence where appropriate of 30 μg crude bacterial cell lysate containing fusion proteins of […] V1 PKC (MBP-δV1), glutathione-S-transferase-delta V5 PKC (GST-δV5), and full length sequences of delta (δPKC, SEQ ID NO:3) or rat purified epsilon (εPKC, SEQ ID NO:6) at 37° C. for 30 min. […]

T4 sequence (P09215 1-160): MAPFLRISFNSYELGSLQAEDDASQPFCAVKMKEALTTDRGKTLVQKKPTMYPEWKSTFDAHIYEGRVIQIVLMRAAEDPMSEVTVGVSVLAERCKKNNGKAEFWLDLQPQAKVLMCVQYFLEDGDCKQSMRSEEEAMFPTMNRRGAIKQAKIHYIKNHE
T5 sequence (Q05655 whole entry): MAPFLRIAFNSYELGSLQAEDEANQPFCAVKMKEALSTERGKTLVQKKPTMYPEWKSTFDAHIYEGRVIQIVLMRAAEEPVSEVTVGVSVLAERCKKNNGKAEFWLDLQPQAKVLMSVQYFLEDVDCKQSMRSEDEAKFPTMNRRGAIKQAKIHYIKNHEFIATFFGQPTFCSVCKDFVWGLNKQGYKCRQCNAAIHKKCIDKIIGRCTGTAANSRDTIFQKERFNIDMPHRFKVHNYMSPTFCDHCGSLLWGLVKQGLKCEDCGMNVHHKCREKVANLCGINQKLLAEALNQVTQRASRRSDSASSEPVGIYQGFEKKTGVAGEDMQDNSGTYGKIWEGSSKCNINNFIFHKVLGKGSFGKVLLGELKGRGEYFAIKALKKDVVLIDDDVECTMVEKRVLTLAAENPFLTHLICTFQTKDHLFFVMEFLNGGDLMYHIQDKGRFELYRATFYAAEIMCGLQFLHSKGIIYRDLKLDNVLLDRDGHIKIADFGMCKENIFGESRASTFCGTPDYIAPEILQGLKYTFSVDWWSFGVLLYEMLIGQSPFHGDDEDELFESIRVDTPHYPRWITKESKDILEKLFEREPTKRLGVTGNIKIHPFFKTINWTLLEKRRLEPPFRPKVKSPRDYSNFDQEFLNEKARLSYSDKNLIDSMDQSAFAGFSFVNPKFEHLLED

Row | percent binding to delta PKC ([1]; absence of calcium) | percent binding to delta PKC ([1]; presence of calcium) | percent binding to delta V1 PKC ([2]; absence of calcium) | percent binding to delta V1 PKC ([2]; presence of calcium) [%] | binding of V5 domain of delta PKC to annexin V ([5]; FIG. 1, GST-delta V5 fusion protein) | binding of V1 domain of delta PKC to annexin V ([5]; FIG. 1, MBP-delta V1 fusion protein) | binding of full-length delta PKC to annexin V ([5]; FIG. 1, full-length delta PKC) | binding of epsilon PKC to annexin V [6] | Molecule | catalytic activity of delta PKC (histone phosphorylation) [3] | activity of epsilon PKC (histone phosphorylation) [4]
1 | about 70% | about 70% | – | – | – | – | – | – | annexin I: human annexin I protein (protein, listed as Homo sapiens) MAMVSEFLKQAWFIENEEQEYVQTVKSSKGGPGSAVSPYPTFNPSSDVAALHKAIMVKGVDEATIIDILTKRNNAQRQQIKAAYLQETGKPLDETLKKALTGHLEEVVLALLKTPAQFDADELRAAMKGLGTDEDTLIEILASRTNKEIRDINRVYREELKRDLAKDITSDTSGDFRNALLSLAKGDRSEDFGVNEDLADSDARALYEAGERRKGTDVNVFNTILTTRSYPQLRRVFQKYTKYSKHDMNKVLDLELKGDIEKCLTAIVKCATSKPAFFAEKLHQAMKGVGTRHKALIRIMVSRSEIDMNDIKAFYQKMYGISLCQAILDETKGDYEKILVALCGGN | – | –
2 | about 75% | 100% | about 55% | 100 | bound to annexin V | bound to annexin V | bound to annexin V | did not bind | annexin V: human annexin V protein (protein, listed as Homo sapiens) MAQVLRGTVTDFPGFDERADAETLRKAMKGLGTDEESILTLLTSRSNAQRQEISAAFKTLFGRDLLDDLKSELTGKFEKLIVALMKPSRLYDAYELKHALKGAGTNEKVLTEIIASRTPEELRAIKQVYEEEYGSSLEDDVVGDTSGYYQRMLVVLLQANRDPDAGIDEAQVEQDAQALFQAGELKWGTDEEKFITIFGTRSVSHLRKVFDKYMTISGFQIEETIDRETSGNLEQLLLAVVKSIRSIPAYLAETLYYAMKGAGTDDHTLIRVMVSRSEIDLFNIRKEFRKNFATSKMIKGDTSGDYKKALLLLCGEDD | increases the catalytic activity of delta PKC | does not increase the activity of epsilon PKC
